Measurements published in patent publication US20150284436A1 (published 2015).
Blank lines part the entries; values can stand above or below the binder they belong to.

Key:
[1] = molecular target: T1, N-TXNIP (N-terminal domain of TXNIP, residues 3-156) (human, UniProt Q9H3M7 3-156); assay: 1H-15N HSQC NMR
T1 construct: The NMR sample was 15N-labeled and its hexahistidine-tag was removed by rTEV; In the Ni-NTA co-purification it carried the N-terminal hexahistidine-tag; also called N-terminal TXNIP; ^15N-labeled N-TXNIP
T1 chain: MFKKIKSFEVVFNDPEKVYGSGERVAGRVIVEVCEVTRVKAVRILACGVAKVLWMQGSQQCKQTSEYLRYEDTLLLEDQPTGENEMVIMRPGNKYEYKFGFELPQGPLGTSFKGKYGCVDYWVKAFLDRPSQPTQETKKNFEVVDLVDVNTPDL
Procedure: NMR interaction experiments were carried out by recording ¹H-¹⁵N NMR HSQC spectra of ¹⁵N-labeled N-TXNIP upon addition of unlabeled TRX or its mutant, which was reduced with 5 mM DTT and dialyzed against 50 mM potassium phosphate (pH 6.6) prior to the interaction study to remove excess DTT.
The ¹H-¹⁵N HSQC spectra of all proteins were measured on a Bruker 900 MHz NMR spectrometer at the Korea Basic Science Institute (Ochang, Korea). The NMR measurements were performed using 0.3 mM ¹⁵N-labeled protein in 50 mM potassium phosphate (pH 6.6) containing 10% D₂O at 25° C. All NMR spectra were processed with Topspin 2.1 and analyzed with the program SPARKY 3.1.
Further, TRX muteins were added and ¹H-¹⁵N HSQC spectra of ¹⁵N-labeled N-TXNIP were monitored to examine interaction between N-TXNIP and TRX. […] In contrast, C62A, C69A, and C73A mutants caused a chemical shift similar to the wild-type TRX (FIG. 12).

[2] = molecular target: T2, TRX(C73A), tag-free, co-expressed in complex (human, UniProt P10599 1-105); assay: purified co-expressed complex, gel filtration before and after ROS treatment
T2 construct: Used in complex with T-TXNIP(C36S/C49S/C120S/C170S/C205S/C267S) to avoid TRX dimerization
T2 chain: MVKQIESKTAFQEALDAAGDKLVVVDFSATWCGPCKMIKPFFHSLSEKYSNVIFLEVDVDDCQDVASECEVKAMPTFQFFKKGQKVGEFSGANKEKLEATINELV
Procedure: In detail, the TRX-T-TXNIP(C120S/C170S/C205S/C267S) complex was incubated with H₂O₂ at 37° C. for 30 minutes (a). The TRX(C73A)-T-TXNIP(C36S/C49S/C120S/C170S/C205S/C267S) complex was incubated with diamide at 37° C. for 30 minutes. The reaction products were injected onto a HiLoad™ 16/60 Superdex™ 75 gel filtration column at room temperature (b). The TRX Cys35 residue is essential for dissociation between TRX and TXNIP. The TRX(C35A)-T-TXNIP(C120S/C170S/C205S/C267S) complex was incubated with diamide at 37° C. for 60 minutes and the reaction products were injected onto the Superdex™ 75 10/300 GL gel filtration column (c). Eluted T-TXNIP and TRX after the ROS treatments are indicated for each reaction. All eluted proteins were analyzed by SDS-PAGE;
The TRX and T-TXNIP(C120S/C170S/C205S/C267S) complex was used to circumvent non-functional cysteine-induced aggregation. The complex (at a concentration of 0.05 mM) was incubated with H₂O₂ at concentrations in the range of 0 to 10 mM in 50 mM Tris-HCl (pH 8.0), 500 mM NaCl, and 10% glycerol at 37° C. The TRX([…]) and T-TXNIP(C36S/C49S/C120S/C170S/C205S/C267S) complex was also used to avoid TRX dimerization and non-functional cysteine-induced aggregation. This complex was incubated with 0 to 3 mM diamide in 50 mM Tris-HCl (pH 8.0), 500 mM NaCl, and 10% glycerol at 37° C. […]

[3] = molecular target: the molecule itself; assay: non-reducing SDS-PAGE after air oxidation
Procedure: TRX(C73)-T-TXNIP(C36S/C49S/C120S/C170S/C205S/C267S) complex was incubated with 100 mM DTT and subjected to size exclusion chromatography to isolate T-TXNIP(C36S/C49S/C120S/C170S/C205S/C267S) from remained protein complex and TRX. The fractions containing T-TXNIP(C36S/C49S/C120S/C170S/C205S/C267S) were collected and dialyzed against 50 mM Tris-HCl (pH 8.0), 500 mM NaCl and 10% glycerol to induce the formation of disulfide bonds between TXNIP molecules;
For analysis by mass spectrometry in vitro, purified TRX(C73A)-T-TXNIP(C36S/C49S/C120S/C170S/C205S/C267S) complex was incubated with 100 mM DTT for 1 hour at room temperature and injected to the Superdex™ 200 10/300 GL gel filtration column installed on an AKTA purifier FPLC system to obtain T-TXNIP(C36S/C49S/C120S/C170S/C205S/C267S) from remained protein complex and TRX(C73 Å). The fractions containing T-TXNIP(C36S/C49S/C120S/C170S/C205S/C267S) were dialyzed against 50 mM Tris-HCl (pH 8.0), 500 mM NaCl and 10% glycerol to induce the formation of disulfide bonds between TXNIP molecules through air oxidation. Dialyzed proteins were then subjected to SDS-PAGE under non-reducing conditions.

[4] = molecular target: T3, FLAG-tagged TXNIP with Cys63 substituted with serine (human, UniProt Q9H3M7 1-391); assay: GST pull-down / co-IP from 293T lysates, Western blot
T3 chain: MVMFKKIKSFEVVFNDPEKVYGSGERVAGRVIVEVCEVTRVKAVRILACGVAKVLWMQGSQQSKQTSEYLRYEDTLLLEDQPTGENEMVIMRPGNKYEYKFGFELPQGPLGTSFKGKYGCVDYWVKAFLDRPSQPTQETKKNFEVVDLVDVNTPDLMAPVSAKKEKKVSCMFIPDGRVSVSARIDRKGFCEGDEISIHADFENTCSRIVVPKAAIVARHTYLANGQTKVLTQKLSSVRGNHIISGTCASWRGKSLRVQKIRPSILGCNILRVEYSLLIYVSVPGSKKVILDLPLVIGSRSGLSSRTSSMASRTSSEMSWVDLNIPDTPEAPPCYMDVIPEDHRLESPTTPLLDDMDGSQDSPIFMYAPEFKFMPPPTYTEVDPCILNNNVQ
Procedure: (§1) Coimmunoprecipitation assays were performed using lysates from 293T cells transfected with combinations of FLAG-tagged or HA-tagged TXNIP plasmids and GST-tagged or FLAG-tagged TXNIP plasmids. Immobilized proteins on FLAG-agarose beads or glutathione beads were visualized by Western blot analysis using anti-HA, anti-FLAG, or anti-GST antibodies. One percent of WCL was used as the input;
(§2) To test the in vivo interprotomer interaction between TXNIP molecules, HEK 293T cells were transfected with plasmids expressing HA-tagged-TXNIP and FLAG-tagged T-TXNIP. 24 hours later, the cells were harvested and lysed in the 50 mM iodoacetamide-containing buffer [0.5% Triton X-100, 150 mM NaCl, 10% glycerol, 1 mM NaF, 1 mM AEBSF, 2 μg/mL leupeptin, 5 μg/mL aprotinin and 20 mM HEPES (pH 7.2)]. After centrifugation at 16,000 rpm for 20 minutes, the supernatant was incubated with anti-FLAG M2 agarose (Sigma) at 4° C. for 12 hours. The immobilized proteins were collected by centrifugation and washed three times with the lysis buffer. The bound proteins were subjected to SDS-PAGE under reduced and non-reduced conditions. […] 24 hours later, the cells were harvested and lysed in the lysis buffer. […]

[5] = molecular target: T4, FLAG-tagged TXNIP with Cys247 substituted with serine (human, UniProt Q9H3M7 1-391); assay: as above
T4 chain: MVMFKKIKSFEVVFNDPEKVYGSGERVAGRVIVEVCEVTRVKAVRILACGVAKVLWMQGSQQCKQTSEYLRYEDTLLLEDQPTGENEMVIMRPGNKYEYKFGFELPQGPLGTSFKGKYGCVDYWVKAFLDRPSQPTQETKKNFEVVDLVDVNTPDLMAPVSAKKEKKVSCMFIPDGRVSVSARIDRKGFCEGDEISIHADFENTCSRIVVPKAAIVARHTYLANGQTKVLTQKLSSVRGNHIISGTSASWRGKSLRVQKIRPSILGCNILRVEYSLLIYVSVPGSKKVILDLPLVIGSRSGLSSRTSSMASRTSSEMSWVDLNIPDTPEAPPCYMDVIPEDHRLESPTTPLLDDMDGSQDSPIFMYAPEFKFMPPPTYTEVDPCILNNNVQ
Procedure: as §1, §2

binding result [1]: no binding
B1: TRX C32A mutant (NMR sample) (enzyme)
chain: MVKQIESKTAFQEALDAAGDKLVVVDFSATWAGPCKMIKPFFHSLSEKYSNVIFLEVDVDDCQDVASECEVKCMPTFQFFKKGQKVGEFSGANKEKLEATINELV
notes: not shown: C-terminal hexahistidine-tag from pET21 vector

binding result [2]: binds
B2: T-TXNIP(C36S/C49S/C120S/C170S/C205S/C267S) (other)
chain: MFKKIKSFEVVFNDPEKVYGSGERVAGRVIVEVSEVTRVKAVRILASGVAKVLWMQGSQQCKQTSEYLRYEDTLLLEDQPTGENEMVIMRPGNKYEYKFGFELPQGPLGTSFKGKYGSVDYWVKAFLDRPSQPTQETKKNFEVVDLVDVNTPDLMAPVSAKKEKKVSSMFIPDGRVSVSARIDRKGFCEGDEISIHADFENTSSRIVVPKAAIVARHTYLANGQTKVLTQKLSSVRGNHIISGTCASWRGKSLRVQKIRPSILGSNILRVEYSLLIYVSVPGSKKVILDLPLVIGSRSGLSSRTSSMASRTSSEM
notes: 1 residues 3-317 (T-TXNIP) with the six printed substitutions; also called monomeric T-TXNIP mutant
binding result [3]: binds

binding result [4]: no binding
B3: GST-fused TXNIP with Cys63 substituted with serine (other)
chain: MVMFKKIKSFEVVFNDPEKVYGSGERVAGRVIVEVCEVTRVKAVRILACGVAKVLWMQGSQQSKQTSEYLRYEDTLLLEDQPTGENEMVIMRPGNKYEYKFGFELPQGPLGTSFKGKYGCVDYWVKAFLDRPSQPTQETKKNFEVVDLVDVNTPDLMAPVSAKKEKKVSCMFIPDGRVSVSARIDRKGFCEGDEISIHADFENTCSRIVVPKAAIVARHTYLANGQTKVLTQKLSSVRGNHIISGTCASWRGKSLRVQKIRPSILGCNILRVEYSLLIYVSVPGSKKVILDLPLVIGSRSGLSSRTSSMASRTSSEMSWVDLNIPDTPEAPPCYMDVIPEDHRLESPTTPLLDDMDGSQDSPIFMYAPEFKFMPPPTYTEVDPCILNNNVQ

binding result [5]: no binding
B4: GST-fused TXNIP with Cys247 substituted with serine (other)
chain: MVMFKKIKSFEVVFNDPEKVYGSGERVAGRVIVEVCEVTRVKAVRILACGVAKVLWMQGSQQCKQTSEYLRYEDTLLLEDQPTGENEMVIMRPGNKYEYKFGFELPQGPLGTSFKGKYGCVDYWVKAFLDRPSQPTQETKKNFEVVDLVDVNTPDLMAPVSAKKEKKVSCMFIPDGRVSVSARIDRKGFCEGDEISIHADFENTCSRIVVPKAAIVARHTYLANGQTKVLTQKLSSVRGNHIISGTSASWRGKSLRVQKIRPSILGCNILRVEYSLLIYVSVPGSKKVILDLPLVIGSRSGLSSRTSSMASRTSSEMSWVDLNIPDTPEAPPCYMDVIPEDHRLESPTTPLLDDMDGSQDSPIFMYAPEFKFMPPPTYTEVDPCILNNNVQ
